Data reported in IntAct's records for PubMed 21321230.

Columns and labels:
dcc_rat Dcc [1] = molecular target: dcc_rat Dcc (UniProt Q63155)
dcc_rat Dcc [2] = molecular target: dcc_rat Dcc (UniProt Q63155); remark: listed apart in the source

Chain of UniProt Q63155 (Q63155 whole entry): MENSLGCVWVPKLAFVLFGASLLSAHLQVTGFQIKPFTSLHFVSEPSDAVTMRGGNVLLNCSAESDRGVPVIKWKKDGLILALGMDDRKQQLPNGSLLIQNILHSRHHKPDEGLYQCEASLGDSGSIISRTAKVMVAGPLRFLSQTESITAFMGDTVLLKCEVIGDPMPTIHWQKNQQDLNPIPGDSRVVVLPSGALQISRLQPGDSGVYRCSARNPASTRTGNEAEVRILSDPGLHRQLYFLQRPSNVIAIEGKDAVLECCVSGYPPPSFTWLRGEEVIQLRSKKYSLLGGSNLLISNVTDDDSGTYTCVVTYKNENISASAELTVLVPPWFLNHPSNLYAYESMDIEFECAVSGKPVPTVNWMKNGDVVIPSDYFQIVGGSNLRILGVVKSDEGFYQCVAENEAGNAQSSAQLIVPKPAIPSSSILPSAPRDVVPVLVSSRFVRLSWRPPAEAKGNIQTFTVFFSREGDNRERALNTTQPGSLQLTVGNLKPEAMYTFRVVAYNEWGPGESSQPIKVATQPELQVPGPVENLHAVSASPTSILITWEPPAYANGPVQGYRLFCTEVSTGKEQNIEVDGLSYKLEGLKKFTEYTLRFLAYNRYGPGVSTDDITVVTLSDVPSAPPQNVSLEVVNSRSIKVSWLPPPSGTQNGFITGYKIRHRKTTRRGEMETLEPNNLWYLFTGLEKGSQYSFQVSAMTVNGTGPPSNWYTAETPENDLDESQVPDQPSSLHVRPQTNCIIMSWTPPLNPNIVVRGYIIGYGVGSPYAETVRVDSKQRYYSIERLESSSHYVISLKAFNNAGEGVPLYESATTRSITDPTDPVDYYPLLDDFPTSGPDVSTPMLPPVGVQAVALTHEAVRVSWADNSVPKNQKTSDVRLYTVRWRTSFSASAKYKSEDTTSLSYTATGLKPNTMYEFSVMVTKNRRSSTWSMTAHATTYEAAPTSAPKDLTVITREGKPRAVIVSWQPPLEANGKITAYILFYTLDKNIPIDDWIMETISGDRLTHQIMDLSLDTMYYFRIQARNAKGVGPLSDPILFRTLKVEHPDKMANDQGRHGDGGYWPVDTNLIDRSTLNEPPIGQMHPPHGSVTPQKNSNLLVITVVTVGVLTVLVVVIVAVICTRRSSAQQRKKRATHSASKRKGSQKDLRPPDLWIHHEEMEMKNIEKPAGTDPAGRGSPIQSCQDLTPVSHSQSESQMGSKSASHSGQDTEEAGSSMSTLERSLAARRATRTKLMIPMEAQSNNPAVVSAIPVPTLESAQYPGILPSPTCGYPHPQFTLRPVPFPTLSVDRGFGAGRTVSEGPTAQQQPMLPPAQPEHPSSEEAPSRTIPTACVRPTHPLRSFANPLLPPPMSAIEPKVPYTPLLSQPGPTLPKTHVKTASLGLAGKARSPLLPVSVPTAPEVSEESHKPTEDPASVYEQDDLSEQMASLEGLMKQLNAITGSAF

Row | Substance | effect of a mutation on the interaction (dcc_rat Dcc [1]) | effect of a mutation on the interaction (dcc_rat Dcc [2])
1 | Unconventional myosin-X (Homo sapiens), Q9HD67 S1718A;H1719A;D1763A;E1769A;K1770A | disrupting interaction strength | –
2 | Unconventional myosin-X (Homo sapiens), Q9HD67 I2037E | – | disrupting interaction strength
3 | Unconventional myosin-X (Homo sapiens), Q9HD67 S1718A;H1719A | disrupting interaction strength | –
